We go through 6 molecules from US11278600B2, “Human alpha-galactosidase variants” (Codexis, Inc., priority 2014, dated 2022).

Assay type in all cases: biochemical
The nature of data set [1]: HTP-analysis of yeast culture supernatants, no challenge (MUGal hydrolysis). The conditions noted are these: activity of the variant/activity of Rd4BB (SEQ ID NO: 15). Put shortly:
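GLA variants were expressed in INVSc1 yeast grown in SD-Ura broth with glucose at 30° C., and culture supernatants were collected after 66-84 h. Supernatant was mixed with McIlvaine buffer pH 4.8 and MUGal (2 mM stock) in 50 mM citrate, 200 mM KCl, pH 4.6, incubated at 37° C. for 30-180 minutes, then quenched with sodium carbonate.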

Data set [2] can be described thus: HTP-analysis of supernatants pretreated with acid (MUGal hydrolysis). Particulars: activity of the variant/activity of Rd4BB (SEQ ID NO: 15); challenge at pH 3.7. Put shortly: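 GLA variants were secreted from INVSc1 yeast grown 66-84 h at 30° C. in SD-Ura with 2% glucose; supernatants were mixed with McIlvaine buffer pH 3.3-4.3 and held at 37° C. for 1-3 h. Residual activity on MUGal at pH 4.8 was then measured by fluorescence.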

Data set [3] is described as follows: HTP-analysis of supernatants pretreated with base (MUGal hydrolysis). The conditions noted are these: activity of the variant/activity of Rd4BB (SEQ ID NO: 15); challenge at pH 9.65. Put shortly:
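GLA variants were secreted by transformed INVSc1 yeast grown 66-84 h at 30° C. Supernatants were exposed to neutral-to-basic buffers (pH 7.0-9.7) at 37° C for 1-18 h, then assayed with MUGal in acidic citrate/McIlvaine buffer, with fluorescence read after quenching.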

B1: 412 (protein)
chain: LDNGLARTPTMGWLHWERFMCNLDCQEEPDSCISEKLFMEMAERMVSEGWKDAGYEYLCIDDCWMAPQRDSEGRLQADPQRFPHGIRQLANYVHSKGLKLGIYADVGNKTCAGFPGSFGYYDIDAQTFADWGVDLLKFDGCYCDSLENLADGYKHMSLALNRTGRHIVYSCEWPLYMWPFQKPNYTEIRQYCNHWRNFADIDDSWKSIKSILDWTSRNQERIVDVAGPGGWNDPDMLVIGNFGLSWDQQVTQMALWAIMAAPLFMSNDLRHISPQAKALLQDKDVIAINQDPLGKQGYQLRKGDNFEVWERPLSGDAWAVAIINRQEIGGPRSYTIPVASLGKGVACNPACFITQLLPVKRQLGFYNWTSRLKSHINPTGTVLLQLENTMQMSLKDLL
modifications: Synthetic Polypeptide sequence of Variant No. 412 of mature Human GLA
Regarding B1, the “Relative Activity of GLA Variants After No Challenge (NC)” value in data set [1] is listed as “+ (0.5 to 1.5 relative activity over Rd4BB (SEQ ID NO: 15))”. Also, the “Relative Activity of GLA Variants After Challenge at pH 3.7” value (“Relative Activity … at pH 3.7” for short) in data set [2] is “++ (>1.5 to 2.5 relative activity over Rd4BB (SEQ ID NO: 15))”. Also, in data set [3], the “Relative Activity of GLA Variants After Challenge at pH 9.65” value (“Relative Activity … at pH 9.65” for short) was “+ (0.5 to 1.5 relative activity over Rd4BB (SEQ ID NO: 15))”.

B2: 414 (protein)
chain: LDNGLARTPTMGWLHWERFMCNLDCQEEPDSCISEKLFMEMAERMVSEGWKDAGYEYLCIDDCWMAPQRDSEGRLQADPQRFPHGIRQLANYVHSKGLKLGIYADVGNKTCAGFPGSFGYYDIDAQTFADWGVDLLKFDGCYCDSLENLADGYKHMSQALNRTGRSIVYSCEWPLYMWPFQKPNYTEIRQYCNHWRNFADIDDSWKSIKSILDWTSRNQERIVDVAGPGGWNDPDMLVIGNFGLSWDQQVTQMALWAIMAAPLFMSNDLRHISPQAKALLQDKDVIAINQDPLGKQGYQLRKGDNFEVWERPLSGDAWAVAIINRQEIGGPRSYTIPVASLGKGVACNPACFITQLLPVKRQLGFYNWTSRLKSHINPTGTVLLQLENTMQMSLKDLL
modifications: Synthetic Polypeptide sequence of Variant No. 414 of mature Human GLA
As for B2, the “Relative Activity of GLA Variants After No Challenge (NC)” value in data set [1] is reported as “+ (0.5 to 1.5 relative activity over Rd4BB (SEQ ID NO: 15))”. The “Relative Activity … at pH 3.7” value in data set [2] is “+ (0.5 to 1.5 relative activity over Rd4BB (SEQ ID NO: 15))”. In data set [3], the “Relative Activity … at pH 9.65” value is “+ (0.5 to 1.5 relative activity over Rd4BB (SEQ ID NO: 15))”.

B3: 416 (protein)
chain: LDNGLARTPTMGWLHWERFMCNLDCQEEPDSCISEKLFMEMAERMVSEGWKDAGYEYLCIDDCWMAPQRDSEGRLQADPQRFPHGIRQLANYVHSKGLKLGIYADVGNKTCAGFPGSFGYYDIDAQTFADWGVDLLKFDGCYCDSLENLADGYKHMSLALNGTGRSIVYSCEWPLYMWPFQKPNYTEIRQYCNHWRNFADIDDSWKSIKSILDWTSRNQERIVDVAGPGGWNDPDMLVIGNFGLSWDQQVTQMALWAIMAAPLFMSNDLRHISPQAKALLQDKDVIAINQDPLGKQGYQLRKGDNFEVWERPLSGDAWAVAIINRQEIGGPRSYTIPVASLGKGVACNPACFITQLLPVKRQLGFYNWTSRLKSHINPTGTVLLQLENTMQMSLKDLL
modifications: Synthetic Polypeptide sequence of Variant No. 416 of mature Human GLA
In the case of B3, the “Relative Activity of GLA Variants After No Challenge (NC)” value in data set [1] was “+ (0.5 to 1.5 relative activity over Rd4BB (SEQ ID NO: 15))”. Further, in data set [2], the “Relative Activity … at pH 3.7” value is listed as “+ (0.5 to 1.5 relative activity over Rd4BB (SEQ ID NO: 15))”. The “Relative Activity … at pH 9.65” value in data set [3] is “− (<0.5 relative activity over Rd4BB (SEQ ID NO: 15))”.

B4: 415 (protein)
chain: LDNGLARTPTMGWLHWERFMCNLDCQEEPDSCISEKLFMEMAERMVSEGWKDAGYEYLCIDDCWMAPQRDSEGRLQADPQRFPHGIRQLANYVHSKGLKLGIYADVGNKTCAGFPGSFGYYDIDAQTFADWGVDLLKFDGCYCDSLENLADGYKHMSLALNRTGRDIVYSCEWPLYMWPFQKPNYTEIRQYCNHWRNFADIDDSWKSIKSILDWTSRNQERIVDVAGPGGWNDPDMLVIGNFGLSWDQQVTQMALWAIMAAPLFMSNDLRHISPQAKALLQDKDVIAINQDPLGKQGYQLRKGDNFEVWERPLSGDAWAVAIINRQEIGGPRSYTIPVASLGKGVACNPACFITQLLPVKRQLGFYNWTSRLKSHINPTGTVLLQLENTMQMSLKDLL
modifications: Synthetic Polypeptide sequence of Variant No. 415 of mature Human GLA
As for B4, the “Relative Activity of GLA Variants After No Challenge (NC)” value in data set [1] is “+ (0.5 to 1.5 relative activity over Rd4BB (SEQ ID NO: 15))”. For the same molecule, the “Relative Activity … at pH 3.7” value in data set [2] was “+ (0.5 to 1.5 relative activity over Rd4BB (SEQ ID NO: 15))”. Besides, the “Relative Activity … at pH 9.65” value in data set [3] was “+ (0.5 to 1.5 relative activity over Rd4BB (SEQ ID NO: 15))”.

B5: 363 (protein)
chain: LDNGLARTPTMGWLHWERFMCNLDCQEEPDSCISEKLFMEMAERMVDEGWKDAGYEYLCIDDCWMAPQRDSEGRLQADPQRFPHGIRQLANYVHSKGLKLGIYADVGNKTCAGFPGSFGYYDIDAQTFADWGVDLLKFDGCYCDSLENLADGYKHMSLALNRTGRSIVYSCEWPLYMWPFQKPNYTEIRQYCNHWRNFADIDDSWKSIKSILDWTSRNQERIVDVAGPGGWNDPDMLVIGNFGLSWDQQVTQMALWAIMAAPLFMSNDLRHISPQAKALLQDKDVIAINQDPLGKQGYQLRKGDNFEVWERPLSGDAWAVAIINRQEIGGPRSYTIPVASLGKGVACNPACFITQLLPVKRQLGFYNWTSRLKSHINPTGTVLLQLENTMQMSLKDLL
modifications: Synthetic Polypeptide sequence of Variant No. 363 of mature Human GLA
Regarding B5, the “Relative Activity of GLA Variants After No Challenge (NC)” value in data set [1] is listed as “+ (0.5 to 1.5 relative activity over Rd4BB (SEQ ID NO: 15))”. Moreover, in data set [2], the “Relative Activity … at pH 3.7” value is “+ (0.5 to 1.5 relative activity over Rd4BB (SEQ ID NO: 15))”. The “Relative Activity … at pH 9.65” value in data set [3] is recorded as “+ (0.5 to 1.5 relative activity over Rd4BB (SEQ ID NO: 15))”.

B6: 417 (protein)
chain: LDNGLARTPTMGWLHWERFMCNLDCQEEPDSCISEKLFMEMAERMVSEGWKDAGYEYLCIDDCWMAPQRDSEGRLQADPQRFPHGIRQLANYVHSKGLKLGIYADVGNKTCAGFPGSFGYYDIDAQTFADWGVDLLKFDGCYCDSLENLADGYKHMSLALNSTGRSIVYSCEWPLYMWPFQKPNYTEIRQYCNHWRNFADIDDSWKSIKSILDWTSRNQERIVDVAGPGGWNDPDMLVIGNFGLSWDQQVTQMALWAIMAAPLFMSNDLRHISPQAKALLQDKDVIAINQDPLGKQGYQLRKGDNFEVWERPLSGDAWAVAIINRQEIGGPRSYTIPVASLGKGVACNPACFITQLLPVKRQLGFYNWTSRLKSHINPTGTVLLQLENTMQMSLKDLL
modifications: Synthetic Polypeptide sequence of Variant No. 417 of mature Human GLA
With B6, in data set [1], the “Relative Activity of GLA Variants After No Challenge (NC)” value was “+ (0.5 to 1.5 relative activity over Rd4BB (SEQ ID NO: 15))”. Also, the “Relative Activity … at pH 3.7” value in data set [2] is reported as “+ (0.5 to 1.5 relative activity over Rd4BB (SEQ ID NO: 15))”. Also, the “Relative Activity … at pH 9.65” value in data set [3] is recorded as “− (<0.5 relative activity over Rd4BB (SEQ ID NO: 15))”.
